From patent publication US20220411483A1 (Chugai, published 2022) come the findings set out here.

Assay [1] has as its target T1, human FcγRIIb extracellular domain with C-terminal His tag (human, UniProt P31994 43-217).
T1 construct: extracellular domain; also called FcgRIIb
T1 sequence (looked up): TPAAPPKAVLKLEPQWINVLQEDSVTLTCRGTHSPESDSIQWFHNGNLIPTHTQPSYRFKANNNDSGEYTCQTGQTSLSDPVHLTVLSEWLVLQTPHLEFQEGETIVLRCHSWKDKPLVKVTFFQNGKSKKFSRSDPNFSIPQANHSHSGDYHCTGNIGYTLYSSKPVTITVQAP
Kind of assay: SPR, KD of IL6R-G1d/IL6R-L divided by KD of variant.

Assay [2] has as its target T2, human FcγRIIa H type extracellular domain with C-terminal His tag (human, UniProt P12318 34-217).
T2 construct: extracellular domain; also called FcgRIIaH
T2 sequence (looked up): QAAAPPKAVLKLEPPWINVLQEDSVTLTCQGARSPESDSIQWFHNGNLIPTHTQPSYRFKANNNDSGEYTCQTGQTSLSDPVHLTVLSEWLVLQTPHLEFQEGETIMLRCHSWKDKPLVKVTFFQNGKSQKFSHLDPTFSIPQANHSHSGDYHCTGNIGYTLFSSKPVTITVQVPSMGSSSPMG
The description is as above.

In assay [3] the target is T3, human FcγRIIIa V type extracellular domain with C-terminal His tag (human, UniProt P08637 17-208).
T3 construct: extracellular domain; also called FcgRIIIaV
Described as above.

The target of assay [4] is T4, human FcγRIIa R type extracellular domain with C-terminal His tag (human, UniProt P12318 34-217).
T4 construct: extracellular domain; also called FcgRIIaR
T4 sequence (looked up): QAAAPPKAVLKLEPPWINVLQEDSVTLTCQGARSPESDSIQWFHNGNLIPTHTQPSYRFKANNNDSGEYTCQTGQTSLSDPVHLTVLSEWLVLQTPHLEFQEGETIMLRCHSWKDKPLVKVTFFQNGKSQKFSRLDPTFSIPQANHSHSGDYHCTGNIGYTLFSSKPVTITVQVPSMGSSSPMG
Described as above.

The target of assay [5] is T5, human FcγRIa extracellular domain with C-terminal His tag (human, UniProt P12314 16-292).
T5 construct: Whole entry named; also called FcgRIa
Described as above.

Assay [6] concerns the target T1, human FcγRIIb extracellular domain with …. Put plainly: SPR, antibody captured, FcgR analyte. (SPR reads the build-up and loss of mass on a sensor chip optically.)
In assay [7] the target is T4, human FcγRIIa R type extracellular …. Kind of assay: SPR, antibody captured, FcgR analyte.
The target in assay [8] is T5, human FcγRIa extracellular domain with …. Put plainly: SPR, antibody captured, FcgR analyte.

T5 sequence (P12314 16-292): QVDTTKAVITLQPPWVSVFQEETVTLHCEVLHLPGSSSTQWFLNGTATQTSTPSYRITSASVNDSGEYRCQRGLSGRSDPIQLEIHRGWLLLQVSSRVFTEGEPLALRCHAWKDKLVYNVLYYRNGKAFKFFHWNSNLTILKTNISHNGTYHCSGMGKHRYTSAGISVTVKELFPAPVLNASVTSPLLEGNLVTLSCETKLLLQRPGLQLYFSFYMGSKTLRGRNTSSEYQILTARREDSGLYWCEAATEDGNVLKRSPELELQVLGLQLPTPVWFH
T3 sequence (P08637 17-208 F176V): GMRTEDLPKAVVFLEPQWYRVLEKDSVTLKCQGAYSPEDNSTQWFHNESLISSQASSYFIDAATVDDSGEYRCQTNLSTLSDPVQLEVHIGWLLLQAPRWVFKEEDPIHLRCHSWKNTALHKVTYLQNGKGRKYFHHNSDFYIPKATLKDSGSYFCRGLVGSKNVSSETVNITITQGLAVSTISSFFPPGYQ

B1: IL6R-P764/IL6R-L (antibody, human IgG1, kappa)
heavy: QVQLQESGPGLVKPSETLSLTCAVSGHSISHDHAWSWVRQPPGEGLEWIGFISYSGITNYNPSLQGRVTISRDNSKNTLYLQMNSLRAEDTAVYYCARSLARTTAMDYWGEGTLVTVSSASTKGPSVFPLAPSSKSTSGGTAALGCLVKDYFPEPVTVSWNSGALTSGVHTFPAVLQSSGLYSLSSVVTVPSSSLGTQTYICNVNHKPSNTKVDKKVEPKSCDKTHTCPPCPAPELLGGDSVFLFPPKPKDTLMISRTPEVTCVVIDVSEEDGEVKFNWYVDGVEVHNAKTKPREEQYNSTYRVVSVLTVLHQDWLNGKEYKCKVSNKALPAPIEKTISKAKGQPREPQVYTLPPSRDELTKNQVSLTCLVKGFYPSDIAVEWESNGQPENNYKTTPPVLDSDGSFFLYSKLTVDKSRWQQGNVFSCSVMHEALHNHYTQKSLSLSP
light: not shown
One may read the Kd as the constant that tells how readily two partners part at equilibrium. Read a low Kd as tighter binding. For B1, the “Relative FcgRIIb-binding Activity” value in assay [1] came to 42. Also, in assay [2], the “Relative FcgRIIaH-binding Activity” value turned out to be 0.026. Also, the “Relative FcgRIIIaV-binding Activity” value in assay [3] was 0.006. Moreover, the “Relative FcgRIIaR-binding Activity” value in assay [4] turned out to be 0.52. Moreover, in assay [5], the “Relative FcgRIa-binding Activity” value stood at 0.086. Also, the results for the equilibrium dissociation constant (Kd) in assay [6], in assay [7] and in assay [8] were 50 nM, 2100 nM and 3.7 nM, respectively.

B2: IL6R-P769/IL6R-L (antibody, human IgG1, kappa)
heavy: QVQLQESGPGLVKPSETLSLTCAVSGHSISHDHAWSWVRQPPGEGLEWIGFISYSGITNYNPSLQGRVTISRDNSKNTLYLQMNSLRAEDTAVYYCARSLARTTAMDYWGEGTLVTVSSASTKGPSVFPLAPSSKSTSGGTAALGCLVKDYFPEPVTVSWNSGALTSGVHTFPAVLQSSGLYSLSSVVTVPSSSLGTQTYICNVNHKPSNTKVDKKVEPKSCDKTHTCPPCPAPELLGGDSVFLFPPKPKDTLMISRTPEVTCVVIDVSHEDGEVKFNWYVDGVEVHNAKTKPREEQYNSTYRVVSVLTVLHQDWLNGKEYKCKVSNKALPAPIEKTISKAKGQPREPQVYTLPPSRDELTKNQVSLTCLVKGFYPSDIAVEWESNGQPENNYKTTPPVLDSDGSFFLYSKLTVDKSRWQQGNVFSCSVMHEALHNHYTQKSLSLSP
light: not shown
On to B2, for which the “Relative FcgRIIb-binding Activity” value in assay [1] amounted to 28.4. For the same molecule, the “Relative FcgRIIaH-binding Activity” value in assay [2] was 0.007. Also, in assay [3], the “Relative FcgRIIIaV-binding Activity” value was 0.006. Moreover, the “Relative FcgRIIaR-binding Activity” value in assay [4] amounted to 0.38. In addition, in assay [5], the “Relative FcgRIa-binding Activity” value turned out to be 0.027. In addition, the Kd in assay [6] came out at 74 nM; in assay [7], 2900 nM; in assay [8] it was 12 nM.

B3: IL6R-P766/IL6R-L (antibody, human IgG1, kappa)
heavy: QVQLQESGPGLVKPSETLSLTCAVSGHSISHDHAWSWVRQPPGEGLEWIGFISYSGITNYNPSLQGRVTISRDNSKNTLYLQMNSLRAEDTAVYYCARSLARTTAMDYWGEGTLVTVSSASTKGPSVFPLAPSSKSTSGGTAALGCLVKDYFPEPVTVSWNSGALTSGVHTFPAVLQSSGLYSLSSVVTVPSSSLGTQTYICNVNHKPSNTKVDKKVEPKSCDKTHTCPPCPAPELLGGDSVFLFPPKPKDTLMISRTPEVTCVVVDVAEEDGEVKFNWYVDGVEVHNAKTKPREEQYNSTYRVVSVLTVLHQDWLNGKEYKCKVSNKGLPSSIEKTISKAKGQPREPQVYTLPPSRDELTKNQVSLTCLVKGFYPSDIAVEWESNGQPENNYKTTPPVLDSDGSFFLYSKLTVDKSRWQQGNVFSCSVMHEALHNHYTQKSLSLSP
light: not shown
As to B3, the “Relative FcgRIIb-binding Activity” value in assay [1] was determined as 7.2. For the same molecule, in assay [2], the “Relative FcgRIIaH-binding Activity” value amounted to 0.025. Besides, the “Relative FcgRIIIaV-binding Activity” value in assay [3] came to 0.008. The “Relative FcgRIIaR-binding Activity” value in assay [4] turned out to be 0.5. Besides, the “Relative FcgRIa-binding Activity” value in assay [5] turned out to be 0.33. Besides, the Kd in assay [6] is 290 nM; in assay [7], 2200 nM; in assay [8], 0.97 nM.

B4: IL6R-P767/IL6R-L (antibody, human IgG1, kappa)
heavy: QVQLQESGPGLVKPSETLSLTCAVSGHSISHDHAWSWVRQPPGEGLEWIGFISYSGITNYNPSLQGRVTISRDNSKNTLYLQMNSLRAEDTAVYYCARSLARTTAMDYWGEGTLVTVSSASTKGPSVFPLAPSSKSTSGGTAALGCLVKDYFPEPVTVSWNSGALTSGVHTFPAVLQSSGLYSLSSVVTVPSSSLGTQTYICNVNHKPSNTKVDKKVEPKSCDKTHTCPPCPAPELLGGDSVFLFPPKPKDTLMISRTPEVTCVVIDVSEEDGEVKFNWYVDGVEVHNAKTKPREEQYNSTYRVVSVLTVLHQDWLNGKEYKCKVSNKGLPSSIEKTISKAKGQPREPQVYTLPPSRDELTKNQVSLTCLVKGFYPSDIAVEWESNGQPENNYKTTPPVLDSDGSFFLYSKLTVDKSRWQQGNVFSCSVMHEALHNHYTQKSLSLSP
light: not shown
On to B4, for which the “Relative FcgRIIb-binding Activity” value in assay [1] is 17.5. Also, the “Relative FcgRIIaH-binding Activity” value in assay [2] was determined as 0.02. Further, the “Relative FcgRIIIaV-binding Activity” value in assay [3] was 0.005. Also, the “Relative FcgRIIaR-binding Activity” value in assay [4] was found to be 0.39. In addition, in assay [5], the “Relative FcgRIa-binding Activity” value was found to be 0.059. Moreover, the Kd in assay [6] worked out at 120 nM; in assay [7] it was 2800 nM; in assay [8], 5.4 nM.

B5: IL6R-P768/IL6R-L (antibody, human IgG1, kappa)
heavy: QVQLQESGPGLVKPSETLSLTCAVSGHSISHDHAWSWVRQPPGEGLEWIGFISYSGITNYNPSLQGRVTISRDNSKNTLYLQMNSLRAEDTAVYYCARSLARTTAMDYWGEGTLVTVSSASTKGPSVFPLAPSSKSTSGGTAALGCLVKDYFPEPVTVSWNSGALTSGVHTFPAVLQSSGLYSLSSVVTVPSSSLGTQTYICNVNHKPSNTKVDKKVEPKSCDKTHTCPPCPAPELLGGDSVFLFPPKPKDTLMISRTPEVTCVVIDVAHEDGEVKFNWYVDGVEVHNAKTKPREEQYNSTYRVVSVLTVLHQDWLNGKEYKCKVSNKGLPSSIEKTISKAKGQPREPQVYTLPPSRDELTKNQVSLTCLVKGFYPSDIAVEWESNGQPENNYKTTPPVLDSDGSFFLYSKLTVDKSRWQQGNVFSCSVMHEALHNHYTQKSLSLSP
light: not shown
Regarding B5, the “Relative FcgRIIb-binding Activity” value in assay [1] turned out to be 12.4. For the same molecule, the “Relative FcgRIIaH-binding Activity” value in assay [2] is 0.027. The “Relative FcgRIIIaV-binding Activity” value in assay [3] turned out to be 0.008. In addition, in assay [4], the “Relative FcgRIIaR-binding Activity” value came out at 0.39. The “Relative FcgRIa-binding Activity” value in assay [5] was 0.097. Further, the Kd in assay [6] is 170 nM; in assay [7] it was 2800 nM; in assay [8], 3.3 nM.

B6: IL6R-P770/IL6R-L (antibody, human IgG1, kappa)
heavy: QVQLQESGPGLVKPSETLSLTCAVSGHSISHDHAWSWVRQPPGEGLEWIGFISYSGITNYNPSLQGRVTISRDNSKNTLYLQMNSLRAEDTAVYYCARSLARTTAMDYWGEGTLVTVSSASTKGPSVFPLAPSSKSTSGGTAALGCLVKDYFPEPVTVSWNSGALTSGVHTFPAVLQSSGLYSLSSVVTVPSSSLGTQTYICNVNHKPSNTKVDKKVEPKSCDKTHTCPPCPAPELLGGDSVFLFPPKPKDTLMISRTPEVTCVVIDVSHEDGEVKFNWYVDGVEVHNAKTKPREEQYNSTYRVVSVLTVLHQDWLNGKEYKCKVSNKGLPSSIEKTISKAKGQPREPQVYTLPPSRDELTKNQVSLTCLVKGFYPSDIAVEWESNGQPENNYKTTPPVLDSDGSFFLYSKLTVDKSRWQQGNVFSCSVMHEALHNHYTQKSLSLSP
light: not shown
B6: the “Relative FcgRIIb-binding Activity” value in assay [1] came out at 12.4. For the same molecule, the “Relative FcgRIIaH-binding Activity” value in assay [2] amounted to 0.006. For the same molecule, the “Relative FcgRIIIaV-binding Activity” value in assay [3] is 0.007. The “Relative FcgRIIaR-binding Activity” value in assay [4] was found to be 0.32. In addition, the “Relative FcgRIa-binding Activity” value in assay [5] stood at 0.021. The Kd worked out at 170 nM in assay [6], 3400 nM in assay [7] and 15 nM in assay [8].

B7: IL6R-P765/IL6R-L (antibody, human IgG1, kappa)
heavy: QVQLQESGPGLVKPSETLSLTCAVSGHSISHDHAWSWVRQPPGEGLEWIGFISYSGITNYNPSLQGRVTISRDNSKNTLYLQMNSLRAEDTAVYYCARSLARTTAMDYWGEGTLVTVSSASTKGPSVFPLAPSSKSTSGGTAALGCLVKDYFPEPVTVSWNSGALTSGVHTFPAVLQSSGLYSLSSVVTVPSSSLGTQTYICNVNHKPSNTKVDKKVEPKSCDKTHTCPPCPAPELLGGDSVFLFPPKPKDTLMISRTPEVTCVVIDVAHEDGEVKFNWYVDGVEVHNAKTKPREEQYNSTYRVVSVLTVLHQDWLNGKEYKCKVSNKALPAPIEKTISKAKGQPREPQVYTLPPSRDELTKNQVSLTCLVKGFYPSDIAVEWESNGQPENNYKTTPPVLDSDGSFFLYSKLTVDKSRWQQGNVFSCSVMHEALHNHYTQKSLSLSP
light: not shown
On to B7, for which the “Relative FcgRIIb-binding Activity” value in assay [1] came to 39.6. Also, the “Relative FcgRIIaH-binding Activity” value in assay [2] was found to be 0.028. Moreover, the “Relative FcgRIIIaV-binding Activity” value in assay [3] was 0.008. The “Relative FcgRIIaR-binding Activity” value in assay [4] was 0.52. For the same molecule, the “Relative FcgRIa-binding Activity” value in assay [5] was 0.178. In addition, the Kd in assay [6] turned out to be 53 nM; in assay [7], 2100 nM; in assay [8] it was 1.8 nM.
